Drawing on article doi:10.1101/2020.05.05.078790, this text covers percent of the VL9 signal after background subtraction for 3 substances.

This experiment addresses HLA-E*0103 heavy chain-β2M complex (human). In words: ELISA.
Turning to BZLF1 (…) (peptide), the percent of the VL9 signal after background subtraction was 41%.

Turning to RL9HIV (…) (peptide), the percent of the VL9 signal after background subtraction stood at 43%.

In turn, RL9SIV (…) (peptide) yielded a percent of the VL9 signal after background subtraction of 22%.
